The results in this text go back to US20250333501A1 (University of California, published 2025).

Where a chain is given by its changes, count along the chain named.

Assay [1] addresses T1, human CLDN6 fused to GFP, expressed on engineered HEK293T cells (HEK293T-CLDN6-mGFP) (human, UniProt P56747 1-220).
T1 construct: It calls residues 1-21 a signal peptide; also called Claudin-6; HEK293T-CLDN6-mGFP Artificial CLDN6+; not shown: mGFP tag
T1 sequence: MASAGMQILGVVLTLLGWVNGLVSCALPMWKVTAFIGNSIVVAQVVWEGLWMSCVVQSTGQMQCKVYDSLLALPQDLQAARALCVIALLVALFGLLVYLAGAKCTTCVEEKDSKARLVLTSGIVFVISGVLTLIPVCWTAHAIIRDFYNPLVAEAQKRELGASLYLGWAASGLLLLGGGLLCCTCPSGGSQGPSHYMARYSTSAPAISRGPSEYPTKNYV
Briefly: FACS, 1.5 µg Ab, 293T clone with human CLDN6. A digest of the protocol: (§1)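 Relative antigen binding strength of humanized antibodies was taken from flow cytometry fluorescence, using 293T clones engineered to express human CLDN6. Each antibody, labelled with Alexa Fluor 647 NHS ester and used at 0.3 µg or 1.5 µg, was incubated with EDTA-detached cells for 30 min on ice in the dark before washing and reading on a BD Accuri C6 (channel FL4H).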
For orientation: Flow cytometry measures light scatter and fluorescence of single cells or particles in a stream.

The target of assay [2] is T1, human CLDN6 fused to GFP, expressed on …. Briefly: FACS, 0.3 µg Ab, 293T clone with human CLDN6. A digest of the protocol:
as §1

The target of assay [3] is T2, CLDN6 endogenously expressed by human cancer cell lines (ARK2, OVCA429) (human, UniProt P56747 1-220).
T2 construct: Untagged endogenous protein; also called Endogenous CLDN6+
T2 sequence: T1 sequence
Kind of assay: FACS, 0.3 µg Ab, ARK2 cells. The protocol: (§2) FACS assays were also carried out to determine relative antigen binding strengths of the humanized antibodies (at either 1.5 μg or 0.3 μg) for binding to CLDN6 as expressed by the indicated cancer cell lines. 2nd Ab only was used as a negative control.

Assay [4] concerns the target T2, CLDN6 endogenously expressed by human …. Briefly: FACS, 1.5 µg Ab, OVCA429 cells.
The target is the same in assay [5]. Briefly: FACS, 1.5 µg Ab, ARK2 cells. The protocol: as §2

B1: AB3-3 (antibody, V domains shown)
VH: EVQLLESGGGLVQPGGSMRLSCAASGFTFSNYWMNWVRQAPGKGLEWVAQIRLKSDNYATHYADSVKGRFTISRDDSKNTVYLQMNSLRAEDTGVYYCNDGPPSGCWGQGTLLTVSS
VL: DIQMTQSPSSLSASVGDRVTITCRISENIYSYLAWYQQKPGKAPKLLVYNAKILVEGVPSRFSGSGSGTDFTLTISSLQPEDFGTYYCQHHYTVPWTFGQGTKLEIK
notes: also called Humanized AB 3-3
In the case of B1, the FACS fluorescence in assay [1] is 340000; in assay [2], 251000; in assay [3], 1160; in assay [4], 88700; in assay [5], 54900.

B2: AB3-4 (antibody, V domains shown)
VH: B1 VH with C106Y
VL: B1 VL with V48I, G84A
notes: also called Humanized AB 3-4
As to B2, the FACS fluorescence was found to be 55800 in assay [1]; 11600 in assay [2]; 1320 in assay [3]; 2960 in assay [4]; 1460 in assay [5].

B3: AB3-5 (antibody, V domains shown)
VH: B1 VH with C106Y
VL: B1 VL
notes: also called Humanized AB 3-5
As to B3, the FACS fluorescence in assay [1] is 48600; in assay [2] it was 13300; in assay [3], 1280; in assay [4], 2950; in assay [5], 2910.

B4: AB3-2 (antibody, V domains shown)
VH: B1 VH
VL: B1 VL with V48I, G84A
notes: also called Humanized AB 3-2
Turning to B4, the FACS fluorescence turned out to be 396000 in assay [1]; 309000 in assay [2]; 14700 in assay [3]; 85900 in assay [4]; 33600 in assay [5].

B5: AB1-5 (antibody, V domains shown)
VH: QVQLVQSGAEVKKPGASVKVSCKASGYTFTTYTMHWVRQAPGQGLEWMGFINPSSGYTDYAQKFQGRVTMTADTSTSTVYMELSSLRSEDTAVYYCANGDYYVAYWGQGTLVTVSS
VL: DIQLTQSPSSLSASVGDRVTMTCTASSSVSSTYFHWYQQKPGKAPKLWIYSTSNLASGVPSRFSGSGSGTDYTLTISSMQPEDAATYYCHQYHRSPLTFGQGTKLEIK
notes: also called Humanized AB 1-5
In the case of B5, the FACS fluorescence came to 213000 in assay [1]; 138000 in assay [2]; 7490 in assay [3]; 54300 in assay [4]; 22400 in assay [5].

B6: AB1-8 (antibody, V domains shown)
VH: B5 VH with V20M, M48I, M70L
VL: B5 VL
notes: Humanized; also called Humanized AB 1-8
On to B6, for which the FACS fluorescence in assay [1] came to 210000; in assay [2], 98800; in assay [3] it was 5810; in assay [4], 66000; in assay [5], 17600.

B7: AB1-6 (antibody, V domains shown)
VH: B5 VH with V20M, M48I, M70L
VL: B5 VL with L4M, M21I, W48L, M79L, A84F
notes: also called Humanized AB 1-6
As to B7, the FACS fluorescence in assay [1] worked out at 227000; in assay [2], 120000; in assay [3], 2820; in assay [4], 29900; in assay [5], 7740.

B8: AB18-3 (antibody, V domains shown)
VH: QVQLVQSGAEVKKPGASVKVSCKASGYSFTGYNMNWVRQAPGQGLEWMGNIDPYYGGSTYAQKFQGRVTMTVDTSTSTVYMELSSLRSEDTAVYYCARERSGYVFSAMDYWGQGTLVTVSS
VL: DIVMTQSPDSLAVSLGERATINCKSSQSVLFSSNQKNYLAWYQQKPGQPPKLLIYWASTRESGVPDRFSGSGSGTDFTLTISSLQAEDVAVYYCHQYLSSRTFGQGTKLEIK
notes: Humanized; also called Humanized AB 18-3
As to B8, the FACS fluorescence turned out to be 58900 in assay [1]; 30400 in assay [2]; 1080 in assay [3]; 2700 in assay [4]; 1210 in assay [5].

B9: AB18-6 (antibody, V domains shown)
VH: B8 VH with V20I, M48I, V68A, M70L, V79A
VL: DIVMTQSPDSLAVSLGERVTMNCKSSQSVLFSSNQKNYLAWYQQKPGQPPKLLIYWASTRESGVPDRFSGSGSGTDFTLTISSVQAEDVAVYYCHQYLSSRTFGQGTKLEIK
notes: also called Humanized AB 18-6
As for B9, the FACS fluorescence in assay [1] is 58500; in assay [2], 26900; in assay [3], 1390; in assay [4] it was 6750; in assay [5], 1940.

B10: AB18-5 (antibody, V domains shown)
VH: B8 VH with V20I, M48I, V68A, M70L, V79A
VL: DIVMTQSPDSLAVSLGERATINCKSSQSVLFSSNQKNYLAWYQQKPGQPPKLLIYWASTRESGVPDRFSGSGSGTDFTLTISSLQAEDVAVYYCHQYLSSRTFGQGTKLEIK
notes: also called Humanized AB 18-5
Regarding B10, the FACS fluorescence in assay [1] amounted to 51900; in assay [2] it was 29400; in assay [3], 1310; in assay [4], 4270; in assay [5], 1330.

B11: AB18-4 (antibody, V domains shown)
VH: B8 VH
VL: B9 VL
notes: also called Humanized AB 18-4
In the case of B11, the FACS fluorescence in assay [1] came to 54400; in assay [2], 32400; in assay [3], 1130; in assay [4], 3220; in assay [5], 1380.

B12: AB4-4 (antibody, V domains shown)
VH: QVQLVQSGAEVKKPGASVKMSCKASGYTFTSYTMHWIRQAPGQGLEWIGYINPSSTYTHYAQKFQGRATLTADTSTSTAYMELSSLRSEDTAVYYCSRGELGGFAYWGQGTLVTVSS
VL: DVVMTQSPLSLPVTLGQPASISCRSSQSLVHSDGNTYLNWYQQRPGQSPRLLIYKVSNRFSGVPDRFSGSGSGTDFTLKISRVEAEDVGVYYCSQSTHVPYTFGQGTKLEIK
notes: also called Humanized AB 4-4
For the molecule B12, the FACS fluorescence in assay [1] amounted to 49000; in assay [2] it was 14100; in assay [3] it was 1050; in assay [4], 1200; in assay [5], 1400.

B13: AB4-5 (antibody, V domains shown)
VH: B12 VH with L45Q
VL: B12 VL
notes: also called Humanized AB 4-5
For the molecule B13, the FACS fluorescence is 43400 in assay [1]; 16800 in assay [2]; 967 in assay [3]; 1350 in assay [4]; 1200 in assay [5].

B14: AB4-3 (antibody, V domains shown)
VH: B12 VH with M20V, I37V, I48M, A68V, L70M, A79V
VL: B12 VL
notes: also called Humanized AB 4-3
B14: the FACS fluorescence in assay [1] came out at 47800; in assay [2] it was 14300; in assay [3], 1190; in assay [4] it was 1160; in assay [5], 1520.

B15: AB9-chim (antibody, V domains shown)
VH: EVQLQQSGPELVKPGASVKMSCKASGYRFTDYNMHWVKQSHGKSLEWIGYINPNNGGTNYNQNFKGKATLTVNKSSSTAYMELRSLTSEDSAAYYCARDYLYFFDCWGQGTTLTVSS
VL: DIQMTQSPASQSASLGESVTITCLASQTIGTWLAWYQQKPGKSPQLLIYAAASLADGVPSRFSGSGSGTRFSFKISSLQAEDFVSYYCQQLYSIPRTFGGGTKLEIK
notes: 'chim' is the pre-humanized form (parental variable regions); also called pre-humanized (chimeric) form of AB9
As to B15, the FACS fluorescence in assay [1] came to 72000; in assay [2] it was 46700; in assay [3], 3510; in assay [4], 3570; in assay [5], 4490.

B16: AB18-chim (antibody, V domains shown)
VH: QVQLKQSGPELEKPGASVKISCKASGYSFTGYNMNWVKQSNGKSLEWIGNIDPYYGGSTYNQKFTGKATLTVDKSSSTAYMQLKSLTSEDSAVYYCARERSGYVFSAMDYWGQGTSVTVSS
VL: NIMMTQSPSSLAVSAGEKVTMSCKSSQSVLFSSNQKNYLAWYQQKPGQSPRLLIYWASTRESGVPDRFTGSGSGTDFTLTISNVQAEDLAVYYCHQYLSSRTFGAGTKLELK
notes: 'chim' is the pre-humanized form (parental variable regions); also called pre-humanized (chimeric) form of AB18
B16: the FACS fluorescence in assay [1] is 135000; in assay [2] it was 73800; in assay [3] it was 3440; in assay [4], 25500; in assay [5] it was 9150.

B17: AB3-chim (antibody, V domains shown)
VH: EVKLEESGGGLVQPGGSMKLSCVASGFTFSNYWMNWVRQSPEKGLEWVAQIRLKSDNYATHYAESVKGRFTISRDDSKRSVYLQMNNLRAEDTGTYYCNDGPPSGCWGQGTTLIVSS
VL: DIQMTQSPASLSASVGETVTITCRISENIYSYLAWYQQKQGKSPQLLVYNAKILVEGVPSRFSGSGSGTQFSLKINSLQPEDFGNYYCQHHYTVPWTFGGGTKLEIK
notes: 'chim' is the pre-humanized form (parental variable regions); also called pre-humanized (chimeric) form of AB3
Regarding B17, the FACS fluorescence in assay [1] stood at 459000; in assay [2], 267000; in assay [3], 17100; in assay [4], 138000; in assay [5], 29100.
